Results published in patent US20100143379A1 (priority 2005, published 2010).

Columns and labels:
CD44 = CD44 phospho-serine sandwich ELISA; assay type: cell-based; details: MIF 100 ng/ml, 10 mins
Method: FIGS. 12A-12E show the phosphoserine content of CD74 and CD44 measured by ELISA. […] The ELISA values represent the mean±SD of triplicate measurements. Experiments were replicated twice. *P<0.02 versus corresponding control (Student's T test, two-tailed). […] Cell lysates were prepared and probed for PKA and PKC using phospho-specific, and total anti-PKA and anti-PKC antibodies.
Ser325 is constitutively phosphorylated in resting cells, but undergoes de-phosphorylation in response to PKC activating stimuli such as phorbol esters. […] The effect of MIF-stimulation CD44 phosphorylation was analyzed in the COS-7 and MEF cell lines by sandwich ELISA using an anti-CD44 capture antibody to quantify CD44 phospho-serine residues (Perez et al. (2003). Nature Immunol. 4:1083-92). […]
The serine phosphorylation of CD74 and CD44 was quantified by specific sandwich ELISA (Perez et al. (2003). Nature Immunol 4:1083-92). […] After several washes (0.5% Tween-20 in PBS), 0.2 μg/ml anti-phospho-serine antibody (Hypromatrix) conjugated with horseradish peroxidase was added, and immunoreactivity measured by the TMB reagent (DakoCytomation) and the data analyzed with SpectraMax Plus (Molecular Devices). […]

p53 = test: Ser15-phosphorylated p53 content, macrophages; assay type: cell-based, mouse; details: during apoptosis induction
Method: (§1) Apoptosis Studies. […] Cell lysates were collected, and caspase-3 activity analyzed using a colorimetric assay kit (R&D Systems). Cytoplasmic p53 content was analyzed as described previously (Mitchell et al. (2002). Proc Natl Acad Sci USA 99:345-350) by immunoblotting of mouse cytosolic fractions using a pair of anti-phospho-p53 (Ser15) (R&D Systems) and total anti-p53 antibodies (Cell Signaling); and for COS-7 cells, the anti-p53 (Ser15) and total anti-p53 antibodies (Cell Signaling). In vivo apoptosis studies followed the procedures of (Mitchell et al. (2002). Proc Natl Acad Sci USA 99:345-350), and were conducted after i.p injection of 15 mg/kg lipopolysaccharide (E. coli 0111:B4; Sigma). Mice were sacrificed 24 hrs after priming and the peritoneal macrophage cells collected and immediately analyzed for apoptosis by an ELISA that detects cytoplasmic oligonucleosomes (Roche Diagnostics). Primary macrophages also were immunostained by Alexa 488-conjugated, Annexin V (Invitrogen), and apoptotic cells enumerated by fluorescence microscopy.

[1] = system: COS-7/CD74+CD44 cell line; test: In vitro apoptosis, caspase-3 activity, COS-7 cell lines; assay type: cell-based; details: MIF 100 ng/ml; apoptosis inducers SNP and camptothecin, 24 hrs
Method: as §1

p56^lck = test: Tyrosine kinase phosphorylation in COS-7/M6 transformants and MEFs (immunoblot); assay type: cell-based; details: only in the cells expressing both CD74 and full-length CD44
Src = test: as above; assay type: cell-based; details: COS-7 transformants and MEFs
Text: Two members of the non-receptor, protein tyrosine kinase family, p56^lck and c-Src (Src), may physically associate with the intracytoplasmic domain of CD44 (Elaimin I. Taher (1996). J. Biol. Chem. 271:2863-2867 and Bourguignon et al. (2001). J. Biol. Chem. 276:7327-7336), and either kinase may lead to downstream ERK1/2 phosphorylation via a Ras-Raf-MEK-dependent pathway (Ishida et al. (1998). Circ Res 82:7-12; Migliaccio et al. (2000). EMBO J. 19:5406-5417; and Mahabeleshwar et al. (2003). J. Biol. Chem. 278:52598-52612). […] The level of p56^lck phosphorylation appeared less in the MEFs than in the COS-7 cells, which may be attributed to the lower level of expression of the p56^lck kinase in cells of fibroblast lineage (Oikawa et al. (2001). Immunol. 104:162-167), or to a higher activation and coupling efficiency of CD44 when over-expressed in COS-7 cells.
Signal Transduction Assays. […] The human CD74 ectodomain (CD74^73-232) was prepared recombinantly in soluble form (sCD74) as described previously (Leng et al. (2003). J Exp Med 197:1467-1476). […] Cells then were harvested and lysed in buffer containing 50 mM Hepes, pH7.5, 150 mM NaCl, 1.5 mM MgCl2, 1 mM EGTA, 1% Glycerol and 1% Triton X-100, and freshly added phosphatase and proteinase inhibitors (1 mM orthovanandate, 10 mM NaF, 10 μg/ml leupeptin, 25 μg/ml aprotinin and 50 μg/ml PMSF). […]

B1: MIF: macrophage migration inhibitory factor; recombinant mouse or human MIF purified essentially free of endotoxin (protein)
chain: PMFIVNTNVPRASVPDGFLSELTQQLAQATGKPPQYIAVHVVPDQLMAFGGSSEPCALCSLHSIGKIGGAQNRSYSKLLCGLLAERLRISPDRVYINYYDMNAANVGWNNSTFA
In the case of B1, the “net content of CD44 serine phosphorylation” value (CD44) is reported as “did not change”, the “cellular content of Ser15-phosphorylated p53” value (p53) is reported as “diminution in the cellular content” and the protection from apoptosis [1] is reported as “significant protective effect”. For the same molecule, the “p56^lck phosphorylation” value (p56^lck) was “phosphorylated by MIF treatment” and the Src phosphorylation (Src) was “An increase in the phosphorylation of the Src kinase was not detected”.
